US11987606

Tests used:
[1] = target: T cell receptor of Ova-specific CD8+ T cells (OT-I), on OT-I cells (mouse); experiment: cell-based or functional assay
[2] = target: T cell receptor of Ova-specific CD8+ T cells (OT-I), on OT-I cells (mouse); experiment: flow cytometry; His-tagged protein pre-mixed with PE-labeled α-His mAb, incubated with OT-I cells at 37° C. for 5 hours

TCR Vα2 expression downregulated, percent of OT-I cells, compared to the α-His/PE control (flow cytometry) [1]: 90% | mean fluorescence shift relative to the unstained control [2]: 100 fold | percent of OT-I cells pMHC+ (PE fluorescence) [2]: 98%
Substance: Kb(Ova)/ANXA5 carrying a His tag (peptide-MHC)
